In US20240076389A1 (NATIONAL RESEARCH COUNCIL OF CANADA, published 2024):
Blank lines part the entries; values can stand above or below the binder they belong to.

What was measured:
[1] = target: T1, human AXL expressed on the cell surface of tumor cell lines (human, UniProt P30530 26-894); assay: cell-based or functional assay
T1 sequence (looked up): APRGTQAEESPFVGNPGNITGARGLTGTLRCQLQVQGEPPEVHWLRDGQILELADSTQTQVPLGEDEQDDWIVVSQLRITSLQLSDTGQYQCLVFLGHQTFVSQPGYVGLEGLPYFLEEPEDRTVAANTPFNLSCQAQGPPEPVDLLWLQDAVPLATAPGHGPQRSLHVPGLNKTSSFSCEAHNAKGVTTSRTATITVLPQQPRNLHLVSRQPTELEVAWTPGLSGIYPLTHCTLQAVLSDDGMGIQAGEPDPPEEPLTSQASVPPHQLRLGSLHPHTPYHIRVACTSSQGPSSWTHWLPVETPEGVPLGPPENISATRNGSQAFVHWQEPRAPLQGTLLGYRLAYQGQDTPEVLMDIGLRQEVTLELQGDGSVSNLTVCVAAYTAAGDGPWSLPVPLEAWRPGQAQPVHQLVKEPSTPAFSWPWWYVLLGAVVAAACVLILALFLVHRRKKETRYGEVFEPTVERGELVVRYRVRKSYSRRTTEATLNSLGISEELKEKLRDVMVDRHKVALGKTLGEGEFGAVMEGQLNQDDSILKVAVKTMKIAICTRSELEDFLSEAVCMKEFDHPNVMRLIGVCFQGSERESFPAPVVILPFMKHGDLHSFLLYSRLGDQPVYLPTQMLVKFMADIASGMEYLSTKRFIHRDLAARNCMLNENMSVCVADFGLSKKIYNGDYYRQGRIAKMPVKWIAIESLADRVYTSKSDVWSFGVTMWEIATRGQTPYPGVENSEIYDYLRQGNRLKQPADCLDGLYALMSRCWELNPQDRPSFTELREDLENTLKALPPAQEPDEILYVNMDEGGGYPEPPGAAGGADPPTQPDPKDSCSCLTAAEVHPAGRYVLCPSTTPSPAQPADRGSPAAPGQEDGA

[2] = target: T1, human AXL expressed on the cell surface …; assay: cell-based or functional assay; remark: listed apart in the source
[3] = target: T2, cyAXL-ECD displayed on yeast; assay: yeast surface display ELISA, non-denatured yeast, goat anti-human F(ab')2-HRP
T2 construct: extracellular domain; 'cy' read as cynomolgus

[4] = target: T3, huMER-ECD displayed on yeast (human, UniProt Q12866 21-505); assay: as above
T3 construct: extracellular domain
T3 sequence (looked up): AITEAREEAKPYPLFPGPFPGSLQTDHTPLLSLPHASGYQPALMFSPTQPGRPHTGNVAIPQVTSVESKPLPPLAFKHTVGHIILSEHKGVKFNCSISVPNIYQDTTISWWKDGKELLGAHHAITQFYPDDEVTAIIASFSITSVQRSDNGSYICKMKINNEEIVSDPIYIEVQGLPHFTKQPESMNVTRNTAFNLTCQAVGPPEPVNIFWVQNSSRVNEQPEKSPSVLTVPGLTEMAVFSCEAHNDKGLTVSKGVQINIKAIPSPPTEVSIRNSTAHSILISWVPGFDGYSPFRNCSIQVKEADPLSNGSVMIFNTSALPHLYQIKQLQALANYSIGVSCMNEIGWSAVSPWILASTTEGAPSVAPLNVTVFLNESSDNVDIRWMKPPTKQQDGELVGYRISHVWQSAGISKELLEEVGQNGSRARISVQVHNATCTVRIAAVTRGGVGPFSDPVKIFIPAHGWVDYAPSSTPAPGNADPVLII

[5] = target: T4, huTyro3-ECD displayed on yeast (human, UniProt Q06418 41-429); assay: as above
T4 construct: extracellular domain
T4 sequence (looked up): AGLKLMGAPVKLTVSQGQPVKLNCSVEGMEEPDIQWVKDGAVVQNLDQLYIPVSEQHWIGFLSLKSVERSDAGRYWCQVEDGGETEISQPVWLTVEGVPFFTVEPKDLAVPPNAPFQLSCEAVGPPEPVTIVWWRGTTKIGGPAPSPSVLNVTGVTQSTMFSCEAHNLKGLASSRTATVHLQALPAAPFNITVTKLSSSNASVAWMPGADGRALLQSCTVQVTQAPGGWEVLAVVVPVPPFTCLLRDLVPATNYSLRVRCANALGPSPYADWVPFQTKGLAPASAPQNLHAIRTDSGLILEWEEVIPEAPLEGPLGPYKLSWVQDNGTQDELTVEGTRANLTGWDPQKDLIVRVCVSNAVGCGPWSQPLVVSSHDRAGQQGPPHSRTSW

[6] = target: T1, human AXL expressed on the cell surface …; assay: FACS on SKOV3 cells, apparent Kd, human Fc format
Experimental: (§1) FACS binding assay. Adherent cells were dissociated with non-enzymatic Sigma Cell Dissociation Solution (Cat. No. C5789). Cells suspensions were added to polypropylene, V-bottom 96-well plates and incubated for 2 hours on ice with primary antibodies at concentrations ranging from 100 nM to 0.001 nM or at a single dose of 100 nM (for the non-specific control). After incubation and washes, cells were incubated with fluorescently labeled secondary antibody (Alexa Fluor® 488 anti-human IgG from Jackson Cat. No 709-546-098) for 1 hour on ice, then washed. Cell viability was determined using Fixable viability dye 450 (20 min on ice). Stained cells were fixed in 1% formaldehyde at 4° C. and stored at 4° C. until acquisition which was performed the next day.
(§2) Binding of recombinant chimeric Abs to three cell lines was assessed by FACS as described above. The apparent Bmax and Kd determination is shown below in Table 14.

[7] = target: T5, mouse AXL extracellular domain (Sino cat. 51026-M08H) (mouse, UniProt Q00993 19-445); assay: ELISA on coated mouse AXL ECD (100 ng/well), VHH-Fc
T5 construct: extracellular domain; Bought protein; also called mouse AXL ECD
T5 sequence (looked up): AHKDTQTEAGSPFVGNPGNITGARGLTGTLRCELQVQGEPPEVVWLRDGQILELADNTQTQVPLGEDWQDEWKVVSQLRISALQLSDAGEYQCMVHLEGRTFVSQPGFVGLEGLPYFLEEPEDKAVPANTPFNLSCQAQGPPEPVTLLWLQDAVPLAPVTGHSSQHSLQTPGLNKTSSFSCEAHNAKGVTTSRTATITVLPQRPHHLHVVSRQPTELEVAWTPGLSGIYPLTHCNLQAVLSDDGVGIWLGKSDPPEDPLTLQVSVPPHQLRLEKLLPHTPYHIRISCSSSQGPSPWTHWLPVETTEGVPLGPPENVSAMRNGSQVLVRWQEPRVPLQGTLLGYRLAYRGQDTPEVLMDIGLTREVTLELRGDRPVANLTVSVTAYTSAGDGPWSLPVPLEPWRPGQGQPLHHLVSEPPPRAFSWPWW
Experimental: (§3) ELISA. ELISAs against human, cyno and mouse AXL ECDs were conducted by immobilizing 100 ng of each protein in wells of Nunc MaxiSorp microplates overnight. Human AXL (aa 1-451) and cyno AXL (aa 1-449) were produced recombinantly as described in Example 10. Mouse AXL was purchased from Sino (cat. 51026-M08H). The next day, plates were blocked with 5% (w/v) dried milk in PBS. Murine mAbs (either hybridoma- or recombinantly-produced) or VHH-Fcs were diluted in PBS containing 1% BSA and 0.1% Tween-20 and added to wells for 2 hours at room temperature. Wells were washed 5× with PBS containing 0.1% Tween-20, then HRP-labeled protein A (diluted 1:1000 in PBS containing 1% BSA and 0.1% Tween™-20) was added to wells for 1 hour at room temperature. Wells were washed again 5× with PBS/0.1% Tween-20 and developed using TMB substrate. Absorbance was measured at 450 nm. As a positive control for mouse AXL binding, a commercial anti-mouse AXL mAb (clone 175128, R&D Systems MAB8541, rat IgG2A) was used and detected with donkey […] secondary antibody.

[8] = target: T1, human AXL expressed on the cell surface …; assay: FACS on NCI-H292 cells, apparent Kd, human Fc format
Experimental: as §1, §2

[9] = target: T6, recombinant human AXL extracellular domain, C-terminally His8-tagged (rhAXL-ECD) (human, UniProt P30530 26-451); assay: SPR, VHH-Fc captured, AXL ECD flowed, single-cycle kinetics
T6 construct: Made in CHO cells; also called (rh)AXL-ECD His8; human AXL ECD
T6 sequence: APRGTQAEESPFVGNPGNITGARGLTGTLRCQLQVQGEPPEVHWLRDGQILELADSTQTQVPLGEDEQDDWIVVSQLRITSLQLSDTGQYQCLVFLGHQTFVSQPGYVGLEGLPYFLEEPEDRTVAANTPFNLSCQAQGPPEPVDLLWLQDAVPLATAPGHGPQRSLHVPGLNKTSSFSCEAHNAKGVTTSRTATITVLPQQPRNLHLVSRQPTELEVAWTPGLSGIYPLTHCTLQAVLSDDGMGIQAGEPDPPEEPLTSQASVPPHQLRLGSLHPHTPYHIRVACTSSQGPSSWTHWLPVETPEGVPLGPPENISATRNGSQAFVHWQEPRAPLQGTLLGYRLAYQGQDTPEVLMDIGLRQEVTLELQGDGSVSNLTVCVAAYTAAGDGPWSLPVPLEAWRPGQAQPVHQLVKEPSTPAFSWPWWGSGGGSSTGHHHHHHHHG
Experimental: (§4) For VH Hs and VHH-Fcs, binding to human and cynomolgus AXL ECD was assessed using either a Biacore T200 instrument or a Biacore 3000 instrument. Either human AXL ECD or anti-human Fc antibody was immobilized on a research-grade CM5 series S sensor chip (T200, rhAXL ECD) or a C1 sensor chip (3000, anti-human Fc) using amine coupling in acetate buffer. VHH-Fcs were captured on anti-human Fc surfaces. Either monomeric VHHs (for rhAXL ECD surfaces) or human and cyno AXL ECD (for VHH-Fc surfaces) were flowed over the surfaces at different concentration ranges. Running buffers were HBS-EP (3000) and HBS-EP+(T200). Flow rates were 10-40 ul/min. All binding studies were performed at 25° C. Surfaces were regenerated using 10 mM glycine, pH 1.5.

[10] = target: T6, recombinant human AXL extracellular …; assay: ELISA on coated AXL ECD (100 ng/well), VHH-Fc, HRP-protein A
Experimental: as §3

[11] = target: T1, human AXL expressed on the cell surface …; assay: FACS on MDA-MB-231 luciferase cells, apparent Kd, human Fc format
Experimental: as §1, §2

[12] = target: T6, recombinant human AXL extracellular …; assay: SPR, VHH-Fc captured, AXL ECD flowed, single-concentration kinetics (estimate)
Experimental: as §4

IC50 of growth inhibition (CellTiterGlo, 5 days) of NCI-H292 cells, -Gas6 [1]: 13 pM
IC50 of growth inhibition of NCI-H292 cells, +Gas6 (2 µg/mL) [1]: 460 pM
IC50 (read off the curve), growth inhibition of H292 cells, without added Gas6 (circles) [2]: ~4 pM
B1: hFc-F107-10G1-DM1 (antibody, human IgG1, kappa, V domains shown)
VH: EVNLVESGGGVVKPGASLKLSCEASGFTFSNYGMSWVRQTSDKRLEWVASISGGGGRTYYLDNVKGRFIISRENAKNTLYLQMSSLKSEDTALFYCARGARASYFAMDYWGQGSSVTVSS
VL: VIVMTQSHKFMSTSVGDRVSITCKASQDVTTAVAWYQQKPGQSPKLLIYWASTRHTGVPDRFTGSGSGTDYSLTISNVQTEDLAFYYCQQHFTTPLTFGAGTKLELKR
modifications: DM1 through SMCC linker on lysine residues; sites not given

yeast ELISA signal normalized to myc expression level [3]: 0.76
yeast ELISA signal normalized to myc expression level [4]: 0.01
B2: NRC-sdAb002-Fc (VHH-human IgG1 Fc fusion) (Fc fusion)
chain: QVQLVDSGGGLVQAGGSLRLSCATSTRTVSSAVMAWFRQAPEKVRDFVGFITNSGNILYDDSVKGRFTISRDNAQNTVYLQMNSLKPEDTAVYYCAAKWSFSSGYGDLRRAAMYDYWGQGTQVTVSS
notes: VHH fused N-terminally to human IgG1 Fc; also called NRC-sdAb0002-Fc; NRC-sdAb002-hIgG1; not shown: human IgG1 Fc

yeast ELISA signal normalized to myc expression level [3]: 0.668
yeast ELISA signal normalized to myc expression level [4]: -0.009
yeast ELISA signal normalized to myc expression level [5]: -0.005
B3: NRC-sdAb003-Fc (VHH-human IgG1 Fc fusion) (Fc fusion)
chain: QVQLVESGGGLVQAGGSLRLSCAASGVTLDYTAIGWFRQAPGKERELVAAITSGGNTDYAESAKGRFRISRDNSKNTIYLQMNSLKPEDTGVYYCAARRGGARGEYDYWDQGTQVTVSS
notes: VHH fused N-terminally to human IgG1 Fc; also called NRC-sdAb0003-Fc; NRC-sdAb003-hIgG1; not shown: human IgG1 Fc

Kd [6]: 54.9 pM
binding result [7]: no binding
Kd [8]: 41.4 pM
Kd [9]: 1000 pM
koff [9]: 0.0033 s⁻¹
kon [9]: 3.3e+06 M⁻¹ s⁻¹
EC50 [10]: 1000 pM
Kd [11]: 122 pM
Kd [12]: 2000 pM
koff [12]: 0.0082 s⁻¹
kon [12]: 5.3e+06 M⁻¹ s⁻¹
B4: NRC-sdAb008-Fc (VHH-human IgG1 Fc fusion) (Fc fusion)
chain: QVKLEESGGGLVQAGGSLRLSCAASGSSGMINTMGWYRQAPGKQRELVARRSTGGTTNYADSVKGRFTISRDDANNTVYLQMNSLKPEDTAVYYCAIIWRTSDLTGRFNTWGQGTQVTVSS
notes: VHH fused N-terminally to human IgG1 Fc; also called NRC-sdAb008-hIgG1; not shown: human IgG1 Fc
